Test results: patent US20170165337A1 (IMMATICS BIOTECHNOLOGIES, published 2017)

biological target: T1, HLA-A*02:01 (human); test: UV peptide-exchange ELISA
T1 construct: MHC class I monomer of the UV-ligand exchange assay; also called peptide-receptive MHC molecules; MHC class I
Text: Candidate peptides for T cell based therapies according to the present invention were further tested for their MHC binding capacity (affinity). The individual peptide-MHC complexes were produced by UV-ligand exchange, where a UV-sensitive peptide is cleaved upon UV-irradiation, and exchanged with the peptide of interest as analyzed. Only peptide candidates that can effectively bind and stabilize the peptide-receptive MHC molecules prevent dissociation of the MHC complexes. To determine the yield of the exchange reaction, an ELISA was performed based on the detection of the light chain (β2m) of stabilized MHC complexes. The assay was performed as generally described in Rodenko et al. (Rodenko et al., 2006).
96 well MAXISorp plates (NUNC) were coated over night with 2 ug/ml streptavidin in PBS at room temperature, washed 4× and blocked forl h at 37° C. in 2% BSA containing blocking buffer. Refolded HLA-A*02:01/MLA-001 monomers served as standards, covering the range of 15-500 ng/ml. Peptide-MHC monomers of the UV-exchange reaction were diluted 100 fold in blocking buffer. Samples were incubated for 1 h at 37° C., washed four times, incubated with 2 ug/ml HRP conjugated anti-β2m for 1 h at 37° C., washed again and detected with TMB solution that is stopped with […]. Absorption was measured at 450 nm. Candidate peptides that show a high exchange yield (preferably higher than 50%, most preferred higher than 75%) are generally preferred for a generation and production of antibodies or fragments thereof, and/or T cell receptors or fragments thereof, as they show sufficient avidity to the MHC molecules and prevent dissociation of the MHC complexes.

Row | Binder | peptide exchange yield [%]
1 | SVHKGFAFV | 50 to 75
2 | VLDDRELLL | 50 to 75
3 | ALGEEWKGYVV | 20 to 50
4 | KLLVQDFFL | 50 to 75
5 | VLAELPIIVV | 50 to 75
6 | HMQDVRVLL | 50 to 75
7 | GLLQINDKIAL | 50 to 75
8 | ALLSSQLAL | 50 to 75
9 | ALDEPPYLTV | 50 to 75
10 | ALVSTIIMV | 10 to 20
11 | ILQERELLPV | 50 to 75
12 | ILQAELPSL | 50 to 75
13 | ALWELSLKI | 50 to 75
14 | ILLKTEGINL | 50 to 75
15 | ALWVSQPPEI | 50 to 75
16 | QVMEKLAAV | 50 to 75
17 | LLGEFSIKM | 50 to 75
18 | TLDTSKLYV | 50 to 75
19 | TLDPNQVSL | 20 to 50
20 | LLKDGPEIGL | 20 to 50

Row | Binder | peptide exchange yield [%]
21 | TLTFRVETV | 50 to 75
22 | ALHRPDVYL | 50 to 75
23 | LIDVKPLGV | 50 to 75
24 | FTVPRVVAV | 50 to 75
25 | TLDDDLDTV | 20 to 50
26 | TVIENIHTI | 20 to 50
27 | ALVDPGPDFVV | 50 to 75
28 | ALPGGAAVAAV | ≥ 75
29 | ALWAGLLTL | 50 to 75
30 | TLVPPAALISI | 50 to 75
31 | ALTKTNLQL | 50 to 75
32 | ALPEILFAKV | 50 to 75
33 | GLSQANFTL | 50 to 75
34 | RLQELTEKL | 50 to 75
35 | AMEALVVEV | 50 to 75
36 | ALLNLLESA | 50 to 75
37 | IIADLDTTIMFA | 50 to 75
38 | VLAEQNIIPSA | 50 to 75
39 | TLLLGLTEV | 50 to 75
40 | TLYDMLASI | 50 to 75

Continued, values first:

Row | peptide exchange yield [%] | Binder
41 | 50 to 75 | VMQDIVYKL
42 | ≥ 75 | YLGGFALSV
43 | 50 to 75 | YLDLSNNRL
44 | ≥ 75 | YLQEVPILTL
45 | 50 to 75 | YLTFLPAEV
46 | ≥ 75 | YLVELSSLL
47 | 50 to 75 | YIFDGSDGGV
48 | 50 to 75 | VLMPTVYQQGV
49 | ≥ 75 | YMFEEVPIVI
50 | 50 to 75 | VLFFNVQEV
51 | 50 to 75 | VLLSIPFVSV
52 | ≥ 75 | VMDTHLVNI
53 | ≥ 75 | YLLDQSFVM
54 | ≥ 75 | VMDPTKILI
55 | 50 to 75 | VLSHNLYTV
56 | 20 to 50 | VMDDQRDLI
57 | 10 to 20 | YLLLQTYVL
58 | 50 to 75 | VVMGTVPRL
59 | 50 to 75 | VMLEMTPEL
60 | 20 to 50 | VMGDIPAAV
61 | ≥ 75 | YLDNVLAEL
62 | 50 to 75 | YIQEYLTLL
63 | 50 to 75 | WLAGDVPAA
64 | 50 to 75 | VLLSVPGPPV
65 | 50 to 75 | VLLGLEMTL
66 | ≥ 75 | YVDDVFLRV
67 | ≥ 75 | YQLELHGIEL
